Source: article PMC11998489
Values belong to the substance of their own block, whether it stands above or below them.

How the values were obtained:
Assay in all cases: split reporter (BiFC, NanoBiT); mCherry BiFC (Nm and Cm fusions) in Sf9 cells transfected with a pair of plasmids (2 ug/well each); 36 h p.t.; epifluorescence microscopy; percentage of fluorescent cells in each field
[1] = target: Hse1 (BiFC fusion) (S. frugiperda)
[2] = target: Vps36 (BiFC fusion) (S. frugiperda)
[3] = target: Vps27 (BiFC fusion) (S. frugiperda)
[4] = target: Vps25 (BiFC fusion) (S. frugiperda)

percentage of fluorescent cells in BiFC [1]: 5%
Substance: Chm7 (BiFC fusion) (natural protein)

percentage of fluorescent cells in BiFC [2]: 5%
Substance: Vps28 (BiFC fusion) (natural protein)

percentage of fluorescent cells in BiFC [3]: 5% | percentage of fluorescent cells in BiFC [4]: 5%
Substance: Tsg101 (BiFC fusion) (natural protein)

percentage of fluorescent cells in BiFC [1]: 5%
Substance: Vps2B (BiFC fusion) (natural protein)
